Results from article PMC12435366, “Maleic anhydride derived diphosphines: adaptable chelators for receptor-targeted ^99mTc, ^64Cu and ^188Re radiotracers” (Chemical Science, 2025).

System: PSMA-expressing tumours
Assay: Ex vivo biodistribution across both mouse models (DU145-PSMA+ and LNCaP xenografts)
Assay type: in vivo, mice
Settings: both tracers, 2 h post-injection
Experimental: The biodistribution of [^99mTcO2(DP^An-PSMAt)2]^+ and [^99mTcO2(DP^MEP-PSMAt)2]^+ was studied using SPECT/CT imaging and ex vivo biodistribution methods. In these studies, [^99mTcO2(DP^An-PSMAt)2]^+ and [^99mTcO2(DP^MEP-PSMAt)2]^+ were used directly from kit-based formulations, without further purification, mimicking procedures used in clinical radiopharmacies and nuclear medicine departments. Mice were injected with [^99mTcO2(DP^An-PSMAt)2]^+ or [^99mTcO2(DP^MEP-PSMAt)2]^+ (4–5 MBq), containing 3 μg (2.6 nmol) of DP^An-PSMAt or 3.5 μg (2.6 nmol) of (DP^MEP-PSMAt) via the tail-vein, and culled 2 h post-injection, followed by dissection, organ/tissue weighing and counting. […]
For all animals, significant concentrations of ^99mTc radioactivity (2–5 %ID g^−1) were measured in PSMA-expressing tumours 2 h post-injection, and although ^99mTc tumour concentrations were consistently higher for animals administered [^99mTcO2(DP^An-PSMAt)2]^+, there were no statistically significant differences between [^99mTcO2(DP^An-PSMAt)2]^+ and [^99mTcO2(DP^MEP-PSMAt)2]^+ in either mouse model. For both tracers, there were also significant concentrations of ^99mTc radioactivity in the spleen, which is known to express low levels of PSMA and accumulate PSMA-targeted radiotracers,[9,10] and the liver. […]

Structure (SMILES) | ^99mTc radioactivity concentration in kidneys
COc1ccc(P(/C(C(=O)O)=C(/C(=O)NCCOCCOCCOCCOCCC(=O)NCCCC[C@H](NC(=O)N[C@@H](CCC(=O)O)C(=O)O)C(=O)O)P(c2ccc(OC)cc2)c2ccc(OC)cc2)c2ccc(OC)cc2)cc1 [[^99mTcO2(DP^An-PSMAt)2]^+, metal not drawn] | 40–90 %ID g^−1
COCCOc1ccc(P(/C(C(=O)O)=C(/C(=O)NCCOCCOCCOCCOCCC(=O)NCCCC[C@H](NC(=O)N[C@@H](CCC(=O)O)C(=O)O)C(=O)O)P(c2ccc(OCCOC)cc2)c2ccc(OCCOC)cc2)c2ccc(OCCOC)cc2)cc1 [[^99mTcO2(DP^MEP-PSMAt)2]^+, metal not drawn] | 40–90 %ID g^−1
